This is an account of results in paper PMC9519043.

Data set [1] addresses SARS-CoV-2 B.1.1.7 (S protein) (SARS-CoV-2 variant B.1.1.7) (UniProt P0DTC2). Put plainly: SPR. The conditions noted are these: SPR (BIAcore T200, […], pH not stated. On the technique in general: Surface plasmon resonance follows binding to a sensor surface in real time, without labels.
For data set [2], the target named is SARS-CoV-2 B.1.351 (S protein) (SARS-CoV-2 variant B.1.351) (UniProt P0DTC2). Put plainly: SPR. Particulars: SPR (BIAcore T200, […], pH not stated.
Data set [3] concerns the target SARS-CoV-2 B.1.1.7 (S protein) (SARS-CoV-2 variant B.1.1.7) (UniProt P0DTC2). Put plainly: microfluidic affinity capture, RT-qPCR. Particulars: 5' amino C12 linker and TEG spacer 9; 3' inverted dT; SPR (BIAcore T200, […], pH not stated; […]. (Real-time PCR tracks product formation cycle by cycle.)

The term Kd denotes the constant that tells how readily two partners part at equilibrium. High values mean a looser complex, low ones a tighter complex. As for “CAGCACCGACCTTGTGCTTTGGGAGTGCTGGTCCAAGGGCGTTAATGGACA [51-nt SARS-CoV-2 aptamer (Song et al.), SPR form]”, the Kd in data set [1] and in data set [2] was 1000 nM throughout.

For “CAGCACCGACCTTGTGCTTTGGGAGTGCTGGTCCAAGGGCGTTAATGGACA [51-nt SARS-CoV-2 aptamer, chip form]”, the binding signal in data set [3] turned out to be 35 % recovery.
